Results from paper PMC7439463.
pKd: −log10 of the molar value.

Key:
[1] = molecular target: BcsQ (tag-free) (E. coli 1094) (UniProt P37655); assay: SEC-MALS; purified sample on Superdex 200 Increase 10/300 GL in its gel filtration buffer (20 mM HEPES pH 8.0, 120 mM NaCl, 2 mM DTT for BcsRQ), 0.5 ml/min
[2] = molecular target: tag-free BcsRQ complex (E. coli 1094) (UniProt P37655); assay: SEC-MALS; purified tag-free BcsERQ^FL complex on Superose 6 Increase 10/300 GL, with Cymal-6 detergent
[3] = molecular target: BcsE^217-523 (purified, tag-free) (E. coli 1094) (UniProt P37657); assay: ITC; apparent constants; Microcal VP-ITC, 20 C; tag-free BcsRQ (180 uM, syringe) titrated into BcsE^217-523 (18 uM, cuvette); 20 mM HEPES pH 8.0, 100 mM NaCl, 2 mM DTT; single-site binding model

BcsR (His tag cleaved, in tag-free BcsRQ) (natural protein)
stoichiometry N (BcsR:BcsQ, printed as 2:2) [1]: 1

BcsE^FL (tag-free) (from UniProt P37657 1-523) (natural protein)
stoichiometry N (BcsE:BcsR:BcsQ, printed as 2:2:2) [2]: 1

tag-free BcsRQ complex (from UniProt P37655 1-242)
pKd [3]: 7.80 | stoichiometry N [3]: 0.95
